Here are results for two molecules from paper PMC7113306, “Molecular basis of ALK1-mediated signalling by BMP9/BMP10 and their prodomain-bound forms” (Nature Communications, 2020).

The target of data set [1] is T1, ALK1 extracellular domain (ALK1 ECD) (human, UniProt P37023 22-118).
T1 construct: activin receptor-like kinase 1 (ALK1), human, cDNA NM_000020, amino acids 22-118; Released from DsbA-(His)6 by TEV protease; also called ALK1 monomer; source: E. coli Rosetta DE3, periplasm, purified (Ni-NTA, TEV cleavage, Superdex 75); not shown: DsbA, N-terminal, cleaved; His6, N-terminal, cleaved
The experiment in a line: crystal structure; BMP10 GF-domain with ALK1 ECD, 2.3 Å and 2.8 Å, space group P6_(5)22. Particulars: both partners purified.

Data set [2] deals with the molecule itself. The data set is described as above.
Data set [3] deals with the molecule itself. As to the kind of experiment: crystal structure; pro-BMP9 mixed with ALK1 ECD at 1:1.5, 3.3 Å, space group P6_(1).
Another data set deals with T2, soluble endoglin (sENG) (human, UniProt P17813 26-586).
T2 construct: signal peptide in the construct; endoglin (ENG), human, residue 1-586 of the cDNA; source: HEK EBNA, transfected (pCEP4), purified from conditioned medium (HiTrap Excel, HiTrap Q, Superdex 200)
T2 sequence (looked up): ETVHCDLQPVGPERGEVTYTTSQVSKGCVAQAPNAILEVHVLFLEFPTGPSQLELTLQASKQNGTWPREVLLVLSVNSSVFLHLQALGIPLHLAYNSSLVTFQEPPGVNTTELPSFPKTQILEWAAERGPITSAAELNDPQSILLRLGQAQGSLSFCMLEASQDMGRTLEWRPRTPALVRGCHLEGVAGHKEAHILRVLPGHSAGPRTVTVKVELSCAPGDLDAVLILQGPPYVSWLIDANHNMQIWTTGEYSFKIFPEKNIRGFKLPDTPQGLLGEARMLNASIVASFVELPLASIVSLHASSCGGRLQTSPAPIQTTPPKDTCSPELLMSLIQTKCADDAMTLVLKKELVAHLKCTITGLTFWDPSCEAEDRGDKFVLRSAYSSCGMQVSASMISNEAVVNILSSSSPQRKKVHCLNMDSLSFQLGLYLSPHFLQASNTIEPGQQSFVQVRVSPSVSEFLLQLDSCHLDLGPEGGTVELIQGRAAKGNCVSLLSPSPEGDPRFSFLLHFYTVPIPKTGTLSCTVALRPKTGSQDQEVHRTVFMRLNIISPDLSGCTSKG
The experiment in a line: SEC; analytical gel filtration, Superdex 200 10/300, 20 mM Tris.HCl, 150 mM NaCl, pH 7.4; 100 μg protein with 2-fold molar excess of ALK1 ECD; peaks checked by SDS-PAGE and anti-prodomain blot. Particulars: both partners purified. On the technique in general: In gel filtration, larger molecules generally elute earlier.

T1 sequence (P37023 22-118): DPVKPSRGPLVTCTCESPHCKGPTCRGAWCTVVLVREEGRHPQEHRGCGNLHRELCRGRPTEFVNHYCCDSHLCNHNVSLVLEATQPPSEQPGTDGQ

B1: BMP10 GF-domain from pro-BMP10 (ligand, human, UniProt O95393 317-424, looked up)
chain: NAKGNYCKRTPLYIDFKEIGWDSWIIAPPGYEAYECRGVCNYPLAEHLTPTKHAIIQALVHLKNSQKASKACCVPTKLEPISILYLDKGVVTYKFKYEGMAVSECGCR
notes: BMP10 GF-domain, human, the processed C-terminal product of full length proBMP10; also called BMP10 GF-domain disulphide-linked dimer; source: HEK EBNA, as part of purified pro-BMP10
Turning to B1, the results for the “stoichiometry N” value in data set [1] and in data set [2] were 1 ALK1 ECD per BMP10 monomer (2:2) and 2, respectively.

B2: BMP9 GF-domain from pro-BMP9 (ligand, human, UniProt Q9UK05 320-429, looked up)
chain: SAGAGSHCQKTSLRVNFEDIGWDSWIIAPKEYEAYECKGGCFFPLADDVTPTKHAIVQTLVHLKFPTKVGKACCVPTKLSPISVLYKDDMGVPTLKYHYEGMSVAECGCR
notes: BMP9 GF-domain, human, the processed C-terminal product of full-length proBMP9; also called BMP9 dimer; source: HEK EBNA, as part of purified pro-BMP9
Take B2: the “stoichiometry N” value in data set [3] worked out at 2. Besides, the binding result in the data set with soluble endoglin (sENG) was “binds”.

By stoichiometry N is commonly meant the number of molecules, sites or subunits per partner or assembly.
